The target of the assay is gp120 of HIV-1NL4-3 virus (on virus particles) (HIV-1 (NL4-3)). Briefly: cell-based or functional assay.

B1: MoMo30 protein (hevamine A-related protein) from Momordica balsamina, purified from leaf extract (other)
chain: GGIATYWGQDTREGRLTAACATGKFQIINIGFLSTFGNGRPPQVNLTRHCSPISNGCRNVSVGVLNCRNDGVKVMLSIGGPHGSYSLSSAAEAIDLADYIWNNFLGGRSTSLRPFGDVPLDGVDFRIERGQFSHYYTMVARRLHDYGRQCSRKVYLTAAPGCRFPDKYLTELLHTGLFDYVWVRFFDDRQCQYNSVNPSGFWWSWMRWINSIPARKFYVGIPASEEAGDGYVAPEVLIKEVLPFTKKFTNYGGVMLFDLSNDVQTNYSSIISNRV
B1: the “IC50, inhibition of HIV-1NL4-3 infectivity in MAGI cell assay” value turned out to be 2.8 nM.

(Values after patent US20240325481A1 (MOREHOUSE SCHOOL OF MEDICINE, published 2024).)
